Tests used:
[1] = biological target: T1, Pol III alpha Y453A (clamp-binding enhanced);Pol III epsilon exonuclease (clamp-binding enhanced);Pol III … (Escherichia coli;Escherichia …, UniProt P10443;P03007;P0ABS8;P0A988 1-1160;1-243;1-76;1-366, Y453A;A921L;M923L|T183L;M185L;A186P;F187L|E41C|); experiment: smFRET; dCTP, Mg2+; kon,fast 0.7±0.1, kon,slow 0.05±0.01, koff 0.40±0.02 s-1; 20 mM Hepes pH 7.6, 5 mM potassium glutamate, 3 mM magnesium acetate, 2 mM DTT, 2 mM Trolox, 25 nM enzyme, 10 uM dCTP; temperature not stated. PIFE with unlabeled Pol III alpha or alpha-epsilon at 25 nM showed no binding (DNA not specified, not listed); conditions: protein: recombinant;recombinant;recombinant;recombinant, (HisTrap purification), Cy5 maleimide at C41;, copies: 1;1;1;2, label: 5' biotin-TEG and Cy3 (amino dT-C6) on template, 7 nt upstream from primer 3' terminus, 5' overhang 14 nt on template, matched G:ddC terminus
[2] = biological target: T2, Pol III alpha (clamp-binding enhanced; called wild type);Pol III epsilon exonuclease (clamp-binding … (Escherichia coli;Escherichia …, UniProt P10443;P03007;P0ABS8;P0A988 1-1160;1-243;1-76;1-366, A921L;M923L|T183L;M185L;A186P;F187L|E41C|); experiment: smFRET; dCTP, Mg2+; kon,fast 0.8±0.1, kon,slow 0.030±0.010, koff 0.20±0.01 s-1 (25 nM enzyme); 20 mM Hepes pH 7.6, 5 mM potassium glutamate, 3 mM magnesium acetate, 2 mM DTT, 2 mM Trolox, 25 nM enzyme, 10 uM dCTP; temperature not stated. PIFE with unlabeled Pol III alpha or alpha-epsilon at 25 nM showed no binding (DNA not specified, not listed); conditions: protein: recombinant;recombinant;recombinant;recombinant, (HisTrap purification), Cy5 maleimide at C41;, copies: 1;1;1;2, label: 5' biotin-TEG and Cy3 (amino dT-C6) on template, 7 nt upstream from primer 3' terminus, 5' overhang 14 nt on template, matched G:ddC terminus
[3] = biological target: T2, Pol III alpha (clamp-binding enhanced; …); experiment: smFRET; non-hydrolyzable dCTP analog, Mg2+; kon,fast 0.6±0.1, kon,slow 0.020±0.007, koff 0.20±0.01 s-1; 20 mM Hepes pH 7.6, 5 mM potassium glutamate, 3 mM magnesium acetate, 2 mM DTT, 2 mM Trolox, 25 nM enzyme, 10 uM dCTP; temperature not stated. PIFE with unlabeled Pol III alpha or alpha-epsilon at 25 nM showed no binding (DNA not specified, not listed); conditions: protein: recombinant;recombinant;recombinant;recombinant, (HisTrap purification), Cy5 maleimide at C41;, copies: 1;1;1;2, label: 5' biotin-TEG and Cy3 (amino dT-C6) on template, 7 nt upstream from primer 3' terminus, 5' overhang 14 nt on template, matched G:C terminus
[4] = biological target: T1, Pol III alpha Y453A (clamp-binding …); experiment: smFRET; non-hydrolyzable dCTP analog (stated for wild type), Mg2+; kon,fast 0.8±0.1, kon,slow 0.04±0.01, koff 0.30±0.01 s-1; 20 mM Hepes pH 7.6, 5 mM potassium glutamate, 3 mM magnesium acetate, 2 mM DTT, 2 mM Trolox, 25 nM enzyme, 10 uM dCTP; temperature not stated. PIFE with unlabeled Pol III alpha or alpha-epsilon at 25 nM showed no binding (DNA not specified, not listed); conditions: protein: recombinant;recombinant;recombinant;recombinant, (HisTrap purification), Cy5 maleimide at C41;, copies: 1;1;1;2, label: 5' biotin-TEG and Cy3 (amino dT-C6) on template, 7 nt upstream from primer 3' terminus, 5' overhang 14 nt on template, matched G:C terminus
[5] = biological target: T2, Pol III alpha (clamp-binding enhanced; …); experiment: smFRET; dCTP, Mg2+; kon,fast 0.6±0.1, kon,slow 0.010±0.003, koff 0.20±0.01 s-1; 20 mM Hepes pH 7.6, 5 mM potassium glutamate, 3 mM magnesium acetate, 2 mM DTT, 2 mM Trolox, 25 nM enzyme, 10 uM dCTP; temperature not stated. PIFE with unlabeled Pol III alpha or alpha-epsilon at 25 nM showed no binding (DNA not specified, not listed); conditions: protein: recombinant;recombinant;recombinant;recombinant, (HisTrap purification), Cy5 maleimide at C41;, copies: 1;1;1;2, label: 5' biotin-TEG and Cy3 (amino dT-C6) on template, 7 nt upstream from primer 3' terminus, 5' overhang 14 nt on template, terminal G:T mismatch
[6] = biological target: T1, Pol III alpha Y453A (clamp-binding …); experiment: smFRET; dCTP, Mg2+; kon,fast 0.6±0.1, kon,slow 0.05±0.01, koff 0.30±0.01 s-1; 20 mM Hepes pH 7.6, 5 mM potassium glutamate, 3 mM magnesium acetate, 2 mM DTT, 2 mM Trolox, 25 nM enzyme, 10 uM dCTP; temperature not stated. PIFE with unlabeled Pol III alpha or alpha-epsilon at 25 nM showed no binding (DNA not specified, not listed); conditions: protein: recombinant;recombinant;recombinant;recombinant, (HisTrap purification), Cy5 maleimide at C41;, copies: 1;1;1;2, label: 5' biotin-TEG and Cy3 (amino dT-C6) on template, 7 nt upstream from primer 3' terminus, 5' overhang 14 nt on template, terminal G:T mismatch
[7] = biological target: T2, Pol III alpha (clamp-binding enhanced; …); experiment: smFRET; dCTP, Mg2+; kon,fast 0.3±0.1, kon,slow 0.020±0.002, koff 0.20±0.01 s-1; 20 mM Hepes pH 7.6, 5 mM potassium glutamate, 3 mM magnesium acetate, 2 mM DTT, 2 mM Trolox, 25 nM enzyme, 10 uM dCTP; temperature not stated. PIFE with unlabeled Pol III alpha or alpha-epsilon at 25 nM showed no binding (DNA not specified, not listed); conditions: protein: recombinant;recombinant;recombinant;recombinant, (HisTrap purification), Cy5 maleimide at C41;, copies: 1;1;1;2, label: 5' biotin-TEG and Cy3 (amino dT-C6) on template, 7 nt upstream from primer 3' terminus, 5' overhang 14 nt on template, terminal G:A mismatch
[8] = biological target: T1, Pol III alpha Y453A (clamp-binding …); experiment: smFRET; dCTP, Mg2+; kon,fast 1.5±0.3, kon,slow 0.04±0.01, koff 0.30±0.02 s-1; 20 mM Hepes pH 7.6, 5 mM potassium glutamate, 3 mM magnesium acetate, 2 mM DTT, 2 mM Trolox, 25 nM enzyme, 10 uM dCTP; temperature not stated. PIFE with unlabeled Pol III alpha or alpha-epsilon at 25 nM showed no binding (DNA not specified, not listed); conditions: protein: recombinant;recombinant;recombinant;recombinant, (HisTrap purification), Cy5 maleimide at C41;, copies: 1;1;1;2, label: 5' biotin-TEG and Cy3 (amino dT-C6) on template, 7 nt upstream from primer 3' terminus, 5' overhang 14 nt on template, terminal G:A mismatch
[9] = biological target: T2, Pol III alpha (clamp-binding enhanced; …); experiment: smFRET; dCTP, Mg2+; kon N.D., koff 0.30±0.02 s-1; 20 mM Hepes pH 7.6, 5 mM potassium glutamate, 3 mM magnesium acetate, 2 mM DTT, 2 mM Trolox, 25 nM enzyme, 10 uM dCTP; temperature not stated. PIFE with unlabeled Pol III alpha or alpha-epsilon at 25 nM showed no binding (DNA not specified, not listed); conditions: protein: recombinant;recombinant;recombinant;recombinant, (HisTrap purification), Cy5 maleimide at C41;, copies: 1;1;1;2, label: 5' biotin-TEG and Cy3 (amino dT-C6) on template, 7 nt upstream from primer 3' terminus, 5' overhang 14 nt on template, terminal double mismatch
[10] = biological target: T1, Pol III alpha Y453A (clamp-binding …); experiment: as above; conditions: protein: recombinant;recombinant;recombinant;recombinant, (HisTrap purification), Cy5 maleimide at C41;, copies: 1;1;1;2, label: 5' biotin-TEG and Cy3 (amino dT-C6) on template, 7 nt upstream from primer 3' terminus, 5' overhang 14 nt on template, terminal double mismatch

B1: G:ddC (dsDNA)
DNA 1: CATAATATCCTCAGGAGTCCTTCGTCCTAGTACTACTCA
DNA 2: TGAGTAGTACTAGGACGAAGGACTC
modifications: 3' dideoxycytosine on primer
B1: binds [1]; binds [2].

B2: G:C (dsDNA)
DNA 1: CATAATATCCTCAGGAGTCCTTCGTCCTAGTACTACTCA
DNA 2: TGAGTAGTACTAGGACGAAGGACTC
B2: binds [3]; binds [4].

B3: G:T (dsDNA)
DNA 1: CATAATATCCTCAGGAGTCCTTCGTCCTAGTACTACTCA
DNA 2: TGAGTAGTACTAGGACGAAGGACTT
modifications: phosphorothioate in primer (position not given)
B3: binds [5]; binds [6].

B4: G:A (dsDNA)
DNA 1: CATAATATCCTCAGGAGTCCTTCGTCCTAGTACTACTCA
DNA 2: TGAGTAGTACTAGGACGAAGGACTA
modifications: phosphorothioate in primer (position not given)
B4: binds [7]; binds [8].

B5: G:AA (dsDNA)
DNA 1: CATAATATCCTCAGGAGTCCTTCGTCCTAGTACTACTCA
DNA 2: TGAGTAGTACTAGGACGAAGGACAA
modifications: phosphorothioate not stated for this DNA
B5: binds [9]; binds [10].
